Experimental data published in paper PMC3601965, “Conformational Change-Induced Repeat Domain Expansion Regulates Rap Phosphatase Quorum-Sensing Signal Receptors” (PLoS Biology, 2013).

Assays:
RapJ = biological target: T1, RapJ (B. subtilis strain 168, UniProt O34327 1-373); assay: SEC + other: MALDI-TOF and MALDI-TOF/TOF mass spectrometry; 8.5 mM PhrC mixed with 425 µM RapJ (wild type or R105A,Y161F), Superdex 200 16/70 in 20 mM Tris-HCl pH 8.0, 50 mM KCl, 5 mM MgCl2, 5 mM DTT; peak fractions analysed for PhrC (m/z 593.27); PhrC alone as control; conditions: both partners purified
T1 construct: RapJ, Bacillus subtilis strain 168, amplified from genomic DNA; no heterologous residues after removal of His-Sumo; Phases came from selenomethionyl RapJ crystals; In the functional rows the in vivo RapJ was expressed in B. subtilis VP068 from pDRJ1 (IS75 DNA); also called response regulator aspartate phosphatase J; wild-type RapJ; source: E. coli BL21(DE3), purified (His-60 Ni resin, SUMO …)
T1 sequence (looked up): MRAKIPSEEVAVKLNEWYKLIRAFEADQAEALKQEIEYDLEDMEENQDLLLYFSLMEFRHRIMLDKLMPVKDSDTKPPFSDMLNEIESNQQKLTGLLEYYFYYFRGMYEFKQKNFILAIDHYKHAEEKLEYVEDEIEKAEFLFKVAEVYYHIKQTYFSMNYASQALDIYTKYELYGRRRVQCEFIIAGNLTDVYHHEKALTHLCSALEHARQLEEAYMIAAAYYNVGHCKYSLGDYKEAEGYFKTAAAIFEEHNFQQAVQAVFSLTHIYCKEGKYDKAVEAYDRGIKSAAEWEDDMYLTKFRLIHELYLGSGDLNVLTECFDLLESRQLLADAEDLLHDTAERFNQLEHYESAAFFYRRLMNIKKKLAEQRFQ

RapJ-R105A,Y161F = biological target: T2, RapJ-R105A,Y161F (B. subtilis, UniProt O34327 1-373, R105A | Y161F); assay: as above; conditions: both partners purified
T2 construct: RapJ, Bacillus subtilis, double mutant R105A,Y161F; same construct limits as wild-type RapJ; source: overexpressed and purified as for X-ray crystallography (E. coli; after the SourceQ step dialysed against buffer H); not shown: His, N-terminal, cleaved; SUMO, N-terminal, cleaved
T2 sequence (looked up): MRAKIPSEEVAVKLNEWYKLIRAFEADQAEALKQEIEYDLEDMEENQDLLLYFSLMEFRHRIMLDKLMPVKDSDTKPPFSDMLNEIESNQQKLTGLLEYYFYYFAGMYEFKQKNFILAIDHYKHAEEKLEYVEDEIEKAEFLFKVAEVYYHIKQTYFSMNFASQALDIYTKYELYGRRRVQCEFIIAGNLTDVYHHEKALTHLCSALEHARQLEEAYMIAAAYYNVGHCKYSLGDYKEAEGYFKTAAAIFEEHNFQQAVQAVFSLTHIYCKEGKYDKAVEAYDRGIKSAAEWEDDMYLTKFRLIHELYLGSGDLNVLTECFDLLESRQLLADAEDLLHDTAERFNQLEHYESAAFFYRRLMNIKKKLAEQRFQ

binding result (RapJ): binds
binding result (RapJ-R105A,Y161F): binds
B1: PhrC (peptide)
peptide: ERGMT
notes: mature PhrC pentapeptide (NH2-ERGMT-COOH), cut from the C-terminus of pro-PhrC, Bacillus subtilis; also called CSF; source: synthetic peptide, bought: LifeTein, 95% purity
